Results reported in article PMC2857095 (The Journal of Biological Chemistry, 2010).

Target: T1, DNA mismatch repair protein MutS, wild type (E. coli, UniProt P23909 1-853)
T1 sequence (looked up): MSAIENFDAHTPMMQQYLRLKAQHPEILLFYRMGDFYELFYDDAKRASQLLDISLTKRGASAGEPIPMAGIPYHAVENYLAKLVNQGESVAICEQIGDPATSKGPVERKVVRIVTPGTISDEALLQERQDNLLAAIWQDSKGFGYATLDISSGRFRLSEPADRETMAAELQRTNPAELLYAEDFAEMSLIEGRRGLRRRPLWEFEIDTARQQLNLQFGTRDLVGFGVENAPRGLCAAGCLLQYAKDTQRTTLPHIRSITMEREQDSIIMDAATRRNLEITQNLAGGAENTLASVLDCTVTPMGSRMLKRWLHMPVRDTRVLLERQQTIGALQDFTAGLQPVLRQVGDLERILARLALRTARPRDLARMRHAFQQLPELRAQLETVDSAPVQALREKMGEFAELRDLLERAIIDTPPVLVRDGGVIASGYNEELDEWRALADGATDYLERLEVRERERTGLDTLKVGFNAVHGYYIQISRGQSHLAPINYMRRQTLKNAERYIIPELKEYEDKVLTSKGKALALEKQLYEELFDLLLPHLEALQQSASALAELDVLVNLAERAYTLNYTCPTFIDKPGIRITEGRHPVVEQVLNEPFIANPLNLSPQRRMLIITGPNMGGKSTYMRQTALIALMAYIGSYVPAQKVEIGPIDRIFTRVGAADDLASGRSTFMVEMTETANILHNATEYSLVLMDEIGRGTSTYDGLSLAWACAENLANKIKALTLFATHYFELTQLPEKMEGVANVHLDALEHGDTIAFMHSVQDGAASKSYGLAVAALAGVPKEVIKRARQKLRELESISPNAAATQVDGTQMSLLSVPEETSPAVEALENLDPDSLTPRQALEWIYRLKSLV
Experiment: SPR

binding result: binds
B1: MutL (natural protein, UniProt P23367 1-615, looked up)
chain: MPIQVLPPQLANQIAAGEVVERPASVVKELVENSLDAGATRIDIDIERGGAKLIRIRDNGCGIKKDELALALARHATSKIASLDDLEAIISLGFRGEALASISSVSRLTLTSRTAEQQEAWQAYAEGRDMNVTVKPAAHPVGTTLEVLDLFYNTPARRKFLRTEKTEFNHIDEIIRRIALARFDVTINLSHNGKIVRQYRAVPEGGQKERRLGAICGTAFLEQALAIEWQHGDLTLRGWVADPNHTTPALAEIQYCYVNGRMMRDRLINHAIRQACEDKLGADQQPAFVLYLEIDPHQVDVNVHPAKHEVRFHQSRLVHDFIYQGVLSVLQQQLETPLPLDDEPQPAPRSIPENRVAAGRNHFAEPAAREPVAPRYTPAPASGSRPAAPWPNAQPGYQKQQGEVYRQLLQTPAPMQKLKAPEPQEPALAANSQSFGRVLTIVHSDCALLERDGNISLLSLPVAERWLRQAQLTPGEAPVCAQPLLIPLRLKVSAEEKSALEKAQSALAELGIDFQSDAQHVTIRAVPLPLRQQNLQILIPELIGYLAKQSVFEPGNIAQWIARNLMSEHAQWSMAQAITLLADVERLCPQLVKTPPGGLLQSVDLHPAIKALKDE
